Three molecules from patent US20260167731A1 (DOMAIN THERAPEUTICS, published 2026) can be followed below.

Several values for one entry are separate records, joined by “and”; a condition that tells them apart may be missing. Identical values can stand only once.

The target of test [1] is T1, human CCR8 (human, UniProt P51685 1-355). The experiment in a line: cell-based or functional assay.
For test [2], the target named is T1, human CCR8. Briefly: cell-based or functional assay. This is another data set of the same source.
For test [3], the target named is T1, human CCR8. Briefly: flow cytometry, HUT78 cells (endogenous CCR8). On the procedure: (§1) The same staining protocol was applied on human CCR8 transfected CHO cell line versus wild type CHO cell line, cutaneous T cell lymphoma HUT78 cell line and human activated T cell model.
(§2) Briefly, 1·10⁵ cells per well in a 96 well plate were incubated with a dilution of unconjugated anti-CCR8 mAb at 10 μg/mL then diluted at 1/3.33, 4 dilution points (during 30 min at 4° C.). In human activated T cells model, prior to mAb incubation, cells were first incubated with 200 nM of hCCL1 (R&D Systems, Minneapolis, MN, USA) or buffer PBS (Invitrogen by Thermofisher Scientific, Illkirch-Graffenstaden, France) supplemented by 2% Fetal Bovine Serum (Invitrogen by Thermofisher Scientific, Illkirch-Graffenstaden, France) and 2 mM EDTA (Invitrogen by Thermofisher Scientific, Illkirch-Graffenstaden, France) during 1 hour at 4° C. To determine EC50 value, 8 concentrations of anti-CCR8 mAb were tested. Unbound antibodies were washed away with PBS (Invitrogen by Thermofisher Scientific, Illkirch-Graffenstaden, France) supplemented by 2% Fetal Bovine Serum (Invitrogen by Thermofisher Scientific, Illkirch-Graffenstaden, France) and 2 mM EDTA (Invitrogen by Thermofisher Scientific, Illkirch-Graffenstaden, France). Subsequently, cells are centrifuged (5 min at 400 g) and bound antibody is detected with F(ab′)₂-Goat anti-Mouse IgG (H+L) Cross-Adsorbed Secondary Antibody, Alexa Fluor 488 (dilution 1/500) (Invitrogen by Thermofisher Scientific, Illkirch-Graffenstaden, France) or with F(ab′)₂-Goat anti-Human IgG Fc Secondary Antibody, PE (Invitrogen by Thermofisher Scientific, Illkirch-Graffenstaden, France) (dilution 1/1000) at 4° C. for 30 min. Detection reagent is washed away and cells are centrifuged (5 min at 400 g) and resuspended in 30 μL PBS. Bound detection antibody is quantified on a MacsQuant16 (Miltenyi, Gladbach, Germany) (B1 or B2 channel, 5000 events per acquisition). During the experiment, the respective isotype mAb controls (mouse IgG1, mouse IgG2a, mouse IgG2b, mouse IgG3 or human IgG1) (Biolegend, Amsterdam, The Netherlands) are included to exclude any unspecific binding events.
EC50 values were determined via nonlinear fit “log(agonist)vs.response−Variable slope (four parameters)” function of Graphpad prism. EC50 values were not constantly determined in the same experiments.
For orientation: A flow cytometer gives signals particle by particle.

The target in test [4] is pm5, modified CCR8 related peptide (human, sulfated tyrosines at Y15 and Y17). Briefly: ELISA on coated CCR8 peptide (500 ng/mL), OD [cont.]. On the procedure: (§3) The specific binding properties of antibodies were evaluated by ELISA with coated CCR8 related peptides (500 ng/mL) in carbonate/bicarbonate buffer. Different peptides were used as described in Table 1 (see Example 1). Each anti-CCR8 mAb was tested at 1 μg/mL then diluted at 1/10. After an incubation at room temperature during 90 min, unbound mAbs were removed by washings. […] After washings, 3,3′,5,5′-tetramethylbenzidine (TMB) (Interchim, Montlugon, France) was added for 15 min. Then the optical density (OD) was determined by using a multiplate reader (Tecan, Lyon, France) and correlated with mAb reactivity on the panel of coated peptides.

Test [5] concerns the target pm6, modified CCR8 related peptide (human, sulfated tyrosines at Y16 and Y17). The description is as above. The procedure:
as §3

In test [6] the target is pm8, modified CCR8 related peptide (human, sulfated tyrosines at Y15, Y16 and Y17). The description is as above. The procedure:
as §3

The target in test [7] is T2, pwt1, unmodified CCR8 related peptide (human, none (non-sulfated Y15, Y16, Y17)).
T2 construct: First 34 amino acids of human CCR8, synthetic; also called unmodified peptide
The test is described as above. On the procedure: as §3

Test [8] addresses pm1, modified CCR8 related peptide (human, sulfated tyrosine at Y15). The test is described as above. On the procedure: as §3
The target of test [9] is pm2, modified CCR8 related peptide (human, sulfated tyrosine at Y16). The description is as above. The procedure: as §3
The target of test [10] is pm3, modified CCR8 related peptide (human, sulfated tyrosine at Y17). The test is described as above. On the procedure:
as §3

The target in test [11] is pm4, modified CCR8 related peptide (human, sulfated tyrosines at Y15 and Y16). The description is as above. The procedure: as §3
Test [12] addresses T3, hCCR8 SNAP-tag (human, UniProt P51685 1-355, SNAP-tag labelled with Lumi4-Terbium).
T3 construct: also called human CCR8 engineered with a SNAP-tag at the N-terminus; not shown: SNAP-tag at the N-terminus
The experiment in a line: HTRF Tag-lite, inhibition of hCCL1-AF647 binding to SNAP-tag hCCR8 on HEK-293. On the procedure:
The inhibition of CCL1 binding to hCCR8 was evaluated with the Tag-Lite® technology from Cisbio (Revvity). Human CCR8 is engineered with a SNAP-tag at the N-terminus of the GPCR. hCCR8 SNAP-tag is transiently transfected on HEK-293 cell line using FuGene® (Promega, Madison, WI, USA). 48 hours after transfection, cells are labeled with the substrate Lumi4-Terbium® (Cisbio, Codolet, France) which covalently reacts with the SNAP-tag, for 1 h at 37° C. […] The Kd is previously obtained in a saturation binding assay on the same cells. […] The plate is next incubated at 21° C. for 2 h. Detection of HTRF signal is performed on the multiplate reader EnVision (PerkinElmer, Waltham, MA, USA). The HTRF (665/620) ratio is calculated by EnVision software, the data exported are considered as the total binding. The specific binding is calculated then by subtracting the non-specific signal from the total binding. The Ki and IC₅₀are calculated using the “One site—Fit Ki” and “One site—FitlogIC50” from GraphPad Prism 9 (Graphpad Software, San Diego, CA, USA), respectively.

Test [13] has as its target T3, hCCR8 SNAP-tag. The experiment in a line: cell-based or functional assay.
For test [14], the target named is T1, human CCR8. The experiment in a line: flow cytometry, hCCR8 transfected CHOK1 cells. The procedure: as §1, §2
The target in test [15] is T1, human CCR8. Briefly: flow cytometry, inhibition of hCCL1-AF647 binding to hCCR8 CHO cells. The procedure:
The hCCR8 transfected CHO cell line was dispatched at a density of 1·10⁵ per well in a 96-well plate. Cells were incubated for 30 min at 4° C. with or without anti-CCR8 mAb tested at 10 μg/mL then diluted at 1/3. Unbound antibodies were washed away with PBS (Gibco, Villebon-sur-Yvette, France) supplemented by 2% Fetal Bovine Serum (Invitrogen by Thermofisher Scientific, Illkirch-Graffenstaden, France) and 2 mM EDTA. […] After washing unbound ligands, CCL1 bound detection is quantified on a MacsQuant16 (Miltenyi, Gladbach, Germany) (R1 channel, 5 000 events per acquisition).
For IC₅₀ determination, a concentration response curve is performed using 8 concentrations of mAb. Curves are fitted and IC₅₀ of CCL1 binding blocking activity is calculated using the sigmoidal dose-response (variable slope) model on GraphPad Prism 9 (GraphPad Software, San Diego, CA, USA).

Chain of pm5, modified CCR8 related peptide (human, sulfated tyrosines at Y15 and Y17) (peptide, as listed by the source): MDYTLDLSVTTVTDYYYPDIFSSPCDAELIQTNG
Chain of pm8, modified CCR8 related peptide (human, sulfated tyrosines at Y15, Y16 and Y17) (peptide, as listed by the source): as above
Chain of pm4, modified CCR8 related peptide (human, sulfated tyrosines at Y15 and Y16) (peptide, as listed by the source): as above
Chain of pm6, modified CCR8 related peptide (human, sulfated tyrosines at Y16 and Y17) (peptide, as listed by the source): as above
Chain of pm3, modified CCR8 related peptide (human, sulfated tyrosine at Y17) (peptide, as listed by the source): as above
T2 sequence (peptide, as listed by the source): as above
Chain of pm2, modified CCR8 related peptide (human, sulfated tyrosine at Y16) (peptide, as listed by the source): as above
Chain of pm1, modified CCR8 related peptide (human, sulfated tyrosine at Y15) (peptide, as listed by the source): as above

B1: humanized anti-CCR8 mAb 2-12 (antibody, human IgG1, kappa)
heavy: not shown
light: DIVMTQAAPSLSVTPGESASISCTSSKSLLHSNGNTYLYWFLQKPGQSPQLLIYRMSNLASGVPDRFSGSGSGTAFTLKISRVEAEDVGVYYCMQHREYPFTFGSGTKLEIKRTVAAPSVFIFPPSDEQLKSGTASVVCLLNNFYPREAKVQWKVDNALQSGNSQESVTEQDSKDSTYSLSSTLTLSKADYEKHKVYACEVTHQGLSSPVTKSFNRGEC
notes: Humanized, human IgG1 / kappa, produced in CHO
Take B1: the “IC50, CCL1 induced hCCR8 Gi2 signaling (BRET, HEK-293)” value (“IC50 … (BRET, HEK-293)” below) in the test with human CCR8 [1] is 0.029 µg/mL and 0.194 nM. Moreover, in the test with human CCR8 [2], the “hCCL1 (100 nM) residual response in %, Protocol #2, mAb 0.08 µg/mL ([…] nM)” value was 62%. Further, the “hCCL1 (100 nM) residual response in %, Protocol #2, mAb 0.4 µg/mL (2.67 nM)” value with human CCR8 [2] turned out to be 38%. Moreover, the “hCCL1 (100 nM) residual response in %, Protocol #2, mAb 10 µg/mL (66.7 nM)” value in the test with human CCR8 [2] worked out at 30%. In the test with human CCR8 [2], the “hCCL1 (100 nM) residual response in %, Protocol #3, mAb 0.05 µg/mL (0.33 nM)” value is 94%. Further, in the test with human CCR8 [2], the “hCCL1 (100 nM) residual response in %, Protocol #3, mAb 0.5 µg/mL (3.33 nM)” value turned out to be 63%. In addition, the “hCCL1 (100 nM) residual response in %, Protocol #3, mAb 5 µg/mL (33.3 nM)” value with human CCR8 [2] is 39%. In addition, the “% of labelled cells” value with human CCR8 [3] came out at 23%. Besides, the binding result in test [4], in test [5], in test [6], in test [7], in test [8] and in [9] was “binds” each time. For the same molecule, the binding result in test [10] and in test [11] was “binds” in each case. In addition, in the test with hCCR8 SNAP-tag [12], the IC50 (in general, the midpoint of a concentration-inhibition curve) is 0.09 µg/mL. The Ki (usually the dissociation constant of the complex between target and ligand, obtained from inhibition or displacement) with hCCR8 SNAP-tag [12] amounted to 0.05 µg/mL.

B2: humanized anti-CCR8 mAb 2-15 (antibody, human IgG1, kappa, V domains shown)
VH: QVQLQQSGPEVVKPGASVKVSCKTSGYTFTEYTIHWVRQSHGQSLEWVGGINPNNGNTRYDQKFKGRVTITIDKSSSTAYMELRSLTSEDTAVYYCARVARSSGSGPYAMDYWGQGTTVTVSS
VL: DVVMTQSPLSLPVTLGDQASISCRCSQSLLHTNGDTYLHWYLQRPGQSPRLLIYKVSNRFSGVPDRFSGSGSGTDFTLKISRVEAEDVGVYFCSQSTHVPYTFGGGTKVEIKR
notes: Humanized, human IgG1 / kappa
As to B2, the “IC50 … (BRET, HEK-293)” value with human CCR8 [1] was 0.034 µg/mL and 0.227 nM. Besides, in the test with human CCR8 [2], the “hCCL1 (100 nM) residual response in %, Protocol #2, mAb 0.08 µg/mL ([…] nM)” value was 77%; the “hCCL1 (100 nM) residual response in %, Protocol #2, mAb 0.4 µg/mL (2.67 nM)” value is 66%; the “hCCL1 (100 nM) residual response in %, Protocol #2, mAb 10 µg/mL (66.7 nM)” value stood at 41%; the “hCCL1 (100 nM) residual response in %, Protocol #3, mAb 0.05 µg/mL (0.33 nM)” value is 73%. Also, in the test with human CCR8 [2], the “hCCL1 (100 nM) residual response in %, Protocol #3, mAb 0.5 µg/mL (3.33 nM)” value amounted to 52% and the “hCCL1 (100 nM) residual response in %, Protocol #3, mAb 5 µg/mL (33.3 nM)” value is 37%. In addition, in the test with hCCR8 SNAP-tag [13], the “% of internalization at 1 µg/ml (CCL1 at 300 nM = 100%), HTRF” value was determined as 44% and the “% of internalization at 10 µg/ml (CCL1 at 300 nM = 100%), HTRF” value came to 36%. In the test with human CCR8 [3], the “% of labelled cells” value was 88% and the concentration giving a half-maximal response (EC50) – broadly, the concentration that produces a half-maximal response – came to 0.2 nM. Besides, in [4], the binding result is reported as “binds”. Further, in [5], the binding result is reported as “binds”. The binding result in test [6] is “binds”. In addition, in test [7], the binding result is “binds”. In [8], the binding result is “binds”. Also, the binding result in test [9] is “binds”. Also, the binding result in test [10] was “binds”. The binding result in test [11] is given as “binds”. In the test with hCCR8 SNAP-tag [12], this molecule displayed an IC50 of 0.04 µg/mL and a Ki of 0.02 µg/mL.

B3: Ref #1 (TPP-21360 of WO 2021/260210) (antibody, human IgG1, V domains shown)
VH: EVQLLESGGGLVQPGGSLRLSCAASGFTFSSYGMHWVRQAPGKGLEWVSAINWNGGSTGYADSVKGRFTISRDNSKNTLYLQMNSLRAEDTAVYYCARGHHSGYDGRFFDYWGQGTLVTVSS
VL: QSVLTQPPSVSGAPGQRVTISCTGSSSNIGAGYNVHWYQQLPGTAPKLLIYTNNRRPSGVPDRFSGSKSGTSASLAISGLRSEDEADYYCAAWDASLSGWVFGGGTKLTVL
notes: Benchmark; variable regions cloned into vectors encoding heavy and light chains of human IgG1, produced in CHO
Regarding B3, in the test with human CCR8 [1], the “IC50 … (BRET, HEK-293)” value was 0.101 µg/mL and 0.675 nM. In the test with hCCR8 SNAP-tag [13], the “% of internalization at 1 µg/ml (CCL1 at 300 nM = 100%), HTRF” value was 126% and the “% of internalization at 10 µg/ml (CCL1 at 300 nM = 100%), HTRF” value worked out at 111%. Besides, the “% positive cells” value with human CCR8 [14] is 75.1%. This molecule came in with an IC50 in the test with human CCR8 [15] of 0.65 µg/mL. In the test with hCCR8 SNAP-tag [12], this molecule gave an IC50 of 0.45 µg/mL and a Ki of 0.23 µg/mL.
